Experimental findings from the DeepSol protein solubility set are described below.

The data set is described as follows: soluble on expression in E. coli; label from the status in PepcDB or PDB records.
Turning to “DYKDDDDKDLKCTTNNMRVWDCTWPAPLGVSPGTVKDICIKDRFHSCHPLETTNVKIPALSPGDHEVTINYLNGFQSKFTLNEKDVSLIPETPEILDLSADFFTSSLLLKWNDRGSALPHPSNATWEIKVLQNPRTEPVALVLLNTMLSGKDTVQHWNWTSDLPLQCATHSVSIRWHIDSPHFSGYKEWSDWSPLKNISWIRNTETNVFPQDKVVLAGSNMTICCMSPTKVLSGQIGNTLRPLIHLYGQTVAIHILNIPVSENSGTNIIFITDDDVYGTVVFAGYPPDVPQKLSCETHDLKEIICSWNPGRITGLVGPRNTEYTLFESISGKSAVFHRIEGLTNETYRLGVQMHPGQEIHNFTLTGRNPLGQAQSAVVINVTERVAPHDPTSLKVKDINSTVVTFSWYLPGNFTKINLLCQIEICKANSKKEVRNATIRGAEDSTYHVAVDKLNPYTAYTFRVRCSSKTFWKWSRWSDEKRHLTTEAT”, the “soluble on expression in E. coli” value was “soluble”. Turning to “DYLRQVFPHYKVQKITLNAGFTCPNRDGLKGWGGCTYCNNQTFSPAFAMKDRSVSEQLRDGIAFFARKYPHMKYLAYFQAYTNTYGEQAEIIRKYEEALNYYDVVGIIIGTRPDCMPDSLLSYLKDLSERVFVLVEYGVESTLDATLRRVNRGHLWSDSMAAIERTAKTGLPIGVHLILGLPGESREDILRHADKISALPVTTLKLHQLQIIRGTAMAKEYAESPSD”, the “soluble on expression in E. coli” value is on record as “not soluble”. “EDFVVSGALNLSLIRERTGFQAKATEDYQTLAGLVMSLLDRLPSTGDSLSWQGWNLQVVGVEERRVTRVLLQKQP”: the “soluble on expression in E. coli” value is “not soluble”. As for “EDICFLLADGRVYVAANQSFEPELLLSSSADSRLYVTDRGLFICAENRIYFIEKGRKTTQFPIADVLGVGAMNESNTAYIALGEEGLASLLLAEGSTAEAMPVAFDGPGDNDFYEMRFSHGRLYAASGLWGTNLMGHAGMVKLYDGNRWTNFDKKTVQEQLGGGFSFNDAIDIAVSNGDPDHFFVGTWGNGLFEFKDGKAIARYSGNETAIAECNPGDARVKAIAFDNKGNLWGTLGAVGKNIFMYDPQSSTWHSFSYPDVANLASFGNMIILPNGDKWVNILHRSGGSTRKGVLIFNDRGTPETTSDDSHLYVEQFVNRLGAAIGHKTIYAMAVDHNGSVWMGSDIGIFGVYNAAGVLSSTSTPIAVRPVGGEEPNLYYVLDKVTVTDIVVDKLNHKWVATQGTGLYLLSEDCSKILAQFTVENSPLLSNNILSLALNDDNGLLYIGTADGLMTFQTGTGSGSASELDGVYVYPNPLRPEYPDGVTIAGLQAGCSVKITDTTGRLLYQTESVTTEVKWNARGADGNRVASGVYAVAVYDPVSKKSKLIRFAVIR”, the “soluble on expression in E. coli” value is on record as “not soluble”. With “EDLIFGKRISLDLGYREKALFYSLEEHVALIHPEDHDNFIHCWQLFISSANLKDNFSCTYRLKTSDGQWFWYKDLGKIVAVDANNHPVRVTGSYTNITESRANEERAQYYGDAFQQTQ”, the “soluble on expression in E. coli” value is reported as “not soluble”. As for “EELEERLVEWIVVQCGPDVGRPDRGRLGFQVWLKNGVILSKLVNSLYPEGSKPVKVPENPPSMVFKQMEQVAQFLKAAEDYGVIKTDMFQTVDLYEGKDMAAVQRTLMALGSLAVTKNDGNYRGDPNWFMK”, the “soluble on expression in E. coli” value is reported as “soluble”. For the sequence “EERFAELFAAVDWISLGGGIHFTAENYPLETFAERLKHFSKTYDVTIFLEPGEAAITKSTTLEVSVLDTLYNEKNLAIVDSSIEAHMLDLLIYRENAKLEQNQGPYEIMVCGKSCLAGDIFGTFRFPEPLKIGDRLSFQDTAGYTMVKKNWFNGVTMPAIVIKECNGALTIQRQFSYNDYQKSLS”, the “soluble on expression in E. coli” value was “not soluble”. For “EFNDKYPDINIDMELDNRFVDIVNERFDLAIRTGMLPDSSLIARKLVDANWVVCASPKYLAKHGIPKQPIELTKHNCLVYSYQETGAREWAFKAGDKMYQVTVDGNLCTNNSSALRN” the value was “not soluble”; for “EFPEITEEMEKEIKNVFRNGNQDEVLSEAFRLTITRKDIQTLNHLNWLNDEIINFYMNMLMERSKEKGLPSVHAFNTFFFTKLKTAGYQAVKRWTKKVDVFSVDILLVPIHLGVHWCLAVVDFRKKNITYYDSMGGINNEACRILLQYLKQESIDKKRKEFDTNGWQLFSKKSQEIPQQMNGSDCGMFACKYADCITKDRPINFTQQHMPYFRKRMVWEILHRKLL”, “soluble”; for “EGGEPCACPHALHRVCGSDGETYSNPCTLNCAKFNGKPELVKVHDGPCEPDEDEDVCQECDGDEYKPVCGSDDITYDNNCRLECASISSSPGVELKHEGPCRT”, “soluble”.

Consider “EGPLHWESTLTYTSYRDRWKERDPKVILAPYVKENDPVSAIYTLIPDGIKQAGEDTPAMPDLLPGQRKYKDVNGLDEEGNLTGKPDGKIDQADVVYLGTRAPKFTMGFSNDFRYKGFDLNIYLYASVGGYSYPYTQVEHGVYGGNGIQRLKDNNNFLADIKNRWTSDNMSSAMPSGEVNSYDSYGAPNWEKNTYLRLKSVTLGYDLSRLFKADKLKVRFYFSGQNLLTFTGYKGLDPEVENDRASYPQQKTFSFGLDVKF”, for which the “soluble on expression in E. coli” value was “not soluble”. To “EHRYGHLLGQINWISLGGGIHFTEPGYALDAFCDRLRRFSEQYGVQVYLEPGEAAITNTATLEVTVLDVMRNEKNLAIVDAATEAHMLDLLIYRMSARVQPDQGPHRYVIYGNSCLAGDVFGEFSFESPLQPGSRISIQDAAGYTMVKKNWFNGVRMPAIAIRELDGEIRLVREFGYQD” belongs “not soluble”. Turning to “EILPNFFKSARPIEGLRPYTVLETAGRQIYIQEGCYHCHSQLIRPFQAEVDRYGAYSLSGEYAYDRPFLWGSKRIGPDLHRVGDYRTTDWHEKHMFDPKSVVPHSIMPAYKHLFTKKSDFDTAYAEALTQKKVFGVPYDTENGVKLGSVEEAKKAYLEEAKKITADMKDKRVLEAIERGEVLEIVALIAYLNSLGNSRINANQNA”, the “soluble on expression in E. coli” value is “not soluble”. For the sequence “EKFVFEGKGDEVIGIEKPGDFVVVLDEVEHEKFVRKGDNLIIQHNIDLSEALCGFVRTISTLDGRTIFYRVLPGEVIAHADVKVIHNEGMPMRRASSDKGDLLVQFDVKFPDKINPDAAKKLADLL”, the “soluble on expression in E. coli” value is “not soluble”.

As for “EKITILADAIPELHVEEANDKVMGSIDWEAALKQSAGKEDLAQEMLQMLVDFIPEVNEWIDKALESDISEEELCHYIHKLHGSSSYCGVPRLKQLCNLIETSLRQHQTISDIEPELFELQDEMEKVTKDANLLLSN”, the “soluble on expression in E. coli” value was “not soluble”. On to “ELQKKIKAADDIFPNQKKNPDKKDNPNVLEVLGEYGGDGFFPTLGNNGLNIPDQVFQSFNNFQIENYKISDFKVDIASERDIVQHDKFRFSYVVN”, for which the “soluble on expression in E. coli” value is given as “soluble”. As to “ENALIGVNDHTLVTENDGRRWVTREPAIVYFHKKYWFNIIAMIRETGVSYYCNLASPYILDPEALKYIDYDLDVKVFADGEKRLLDVDEYEQHKAQMNYP”, the “soluble on expression in E. coli” value is on record as “not soluble”. Regarding “EPEGKPRAWVLDFKGSMDAHEVNSLREEITAVLAAAKARDQVVIRLESPGGVVHGYGLAASQLQRLRDKQIPLTVSVDKVAASGGYMMACVANKIVSAPFAILGSIGVVAQIPNLHRFLKNKDIDIELHTAGQYKRTLTMLGENTEEGRRKFREDLNETHHLFKDFVHRMRPGLDIEQVATGEHWYGVQALEKGLVD”, the “soluble on expression in E. coli” value is “not soluble”. “EQMEGMLCRKQEMEAFGKKAANRSWQNVYCVLRRGSLGFYKDAKAASAGVPYHGEVPVSLARAQGSVAFDYRKRKHVFKLGLQDGKEYLFQAKDEAEMSSWLRVVNAAIA”: the “soluble on expression in E. coli” value is “soluble”. For the sequence “ERRQGIAGVKGNQLQLMTESDDVMQALIRDIQLARHNIEMVFYIWQPGGMADQVAESLMAAARRGIHCRLMLDSAGSVAFFRSPWPELMRNAGIEVVEALKVNLMRVFLRRMDLRQHRKMIMIDNYIAYTGSMNMVDPRYFKQDAGVGQWIDLMARMEGPIATAMGIIYSCDWEIETGKRILPPPPDVNIMPFEQASGHTIHTIASGPGFPEDLIHQA”, the “soluble on expression in E. coli” value is on record as “not soluble”. For the sequence “ETRECKEALAKSEMNVNMKCQLPNFTAETPIQNVILHEHHIFLGATNYIYVLNEEDLQKVAEYKTGPVLEHPDCFPCQDCSSKANLSGGVWKDNINMALVVDTYYDDQLISCGSVNRGTCQRHVFPHNHTADIQSEVHCIFSPQIEEPSQCPDCVVSALGAKVLSSVKDRFINFFVGNTINSSYFPDHPLHSISVRRLKETKDGFMFLTDQSYIDVLPEFRDSYPIKYVHAFESNNFIYFLTVQRETLDAQTFHTRIIRFCSINSGLHSYMEMPLECILTEKRKKRSTKKEVFNILQAAYVSKPGAQLARQIGASLNDDILFAVFAQSKPDSAEPMDRSAMCAFPIKYVNDFFNKIVNKNNVRCLQHFYGPNHEHCFNRTLLRNSSGCEARRDEYRTEFTTALQRVDLFMGQFSEVLLTSISTFIKGDLTIANLGTSEGRFMQVVVSRSGPSTPHVNFLLDSHPVSPEVIVEHTLNQNGYTLVITGKKITKIPLNGLGCRHFQSCSQCLSAPPFVQCGWCHDKCVRSEECLSGTWTQQICLPAIYKVFPNSAPLEGGTRLTICGWDFGFRRNNKFDLKKTRVLLGNESCTLTLSESTMNTLKCTVGPAMNKHFNMSIIISNGHGTTQYSTFSYVDPVITSISPKYGPMAGGTLLTLTGNYLNSGNSRHISIGGKTCTLKSVSNSILECYTPAQTISTEFAVKLKIDLANRETSIFSYREDLHHHHHH”, the “soluble on expression in E. coli” value is listed as “soluble”.

On to “ETVHETPLLIFPPWINKFYILDLKPQNSLLKWLVDQGFTVFVVSWVNPDKSYAGIGMDDYIREGYMRAMAEVRSITRQKQINAVGYCIAGTTLTLTLAHLQKAGDPSVRSATFFTTLTDFSDPGEVGVFLNDDFVDGIERQVAVDGILDKTFMSRTFSYLRSNDLIYQPAIKSYMMGEAPPAFDLLYWNGDGTNLPAQMAVEYLRGLCQQDRLAGGTFPVLGSPVGLKDVTLPVCAIACETDHIAPWKSSFNGFRQFGSTDKTFILSQSGHV”, for which the “soluble on expression in E. coli” value is reported as “not soluble”.

Take “EVQLVESGGGLVQPGGSLRLSCAASGFNIKEYYMHWVRQAPGKGLEWVGLIDPEQGNTIYDPKFQDRATISADNSKNTAYLQMNSLRAEDTAVYYCARDTAAYFDYWGQGTLVTVSSASTKGPSVFPLAPSSKSTSGGTAALGCLVKDYFPEPVTVSWNSGALTSGVHTFPAVLQSSGLYSLSSVVTVPSSSLGTQTYICNVNHKPSNTKVDKKVEPKSCDKTHT”: the “soluble on expression in E. coli” value was “soluble”.

On to “EVVVIGYGSVKKDDLSGSVVAIKAEEMNKGAVTSPQELIMGKVPGLSVSQGDGAPGAGSTIRIRGGASLNASNDPLIVIDGIPVSNDAAPGTPNALATINPNDIETFTVLKDASATAIYGSRASNGVIII”, for which the “soluble on expression in E. coli” value is listed as “not soluble”. With “FDAIAGSISDAVVTIDADSEVVYANDEAVELTGYDRKELVGDDFAKVIPEHLRSAHFEGLDRYLRTGNRNVDWDYLELPLVTAAGDQLTVAVSFGDFERNGQWFCTGVLRDIS”, the “soluble on expression in E. coli” value is reported as “not soluble”.

Consider “FEKVYHLKLSIKGITPQIWRRIQVPENYTFLDLHKAIQAVMDWEDYHLHEFEMVNPKTGMLDKIGAEGDDFDAFGGPLVSEKKAKLSDYFTLENKEALYTYDFGDNWQVKVRLEKILPRKEGVEYPICTAGKRAAVPEDSGGVWGYEEMLEVLKDSEHEEYEDTVLWLGDDFDPEYFDPKDVS”, for which the “soluble on expression in E. coli” value is listed as “not soluble”. Consider “FIFLALLGAAVAFPVDDDDKIVGGYTCGANTVPYQVSLNSGYHFCGGSLINSQWVVSAAHCYKSGIQVRLGEDNINVVEGNEQFISASKSIVHPSYNSNTLNNDIMLIKLKSAASLNSRVASISLPTSCASAGTQCLISGWGNTKSSGTSYPDVLKCLKAPILSDSSCKSAYPGQITSNMFCAGYLEGGKDSCQGDSGGPVVCSGKLQGIVSWGSGCAQKNKPGVYTKVCNYVSWIKQTIASN”, for which the “soluble on expression in E. coli” value was “soluble”.
